# In the DeepSol protein solubility set:
# Experiment: soluble on expression in E. coli; label from the status in PepcDB or PDB records
row,Sequence,soluble on expression in E. coli
1,NQKMIASAFNNALGAIQDGFDATNSALGKIQSVVNANAEALNNLLNQLSLVPRGSGGSGGSGGLNVTLLDLTYEMNRIQDAIKKLNESYINLKE,soluble
2,TVGILWVNWDSRVRYANRAVESMLGYAPGQVVERPLIDFEPDLHMDRWLNLWKNARSSEDSAQVFETHCLRADGSLLPADVSLSFLRFR,not soluble
3,MSLKLLHERMMHSLARYPRQTAVVDEQDALSYEALELRIREFVAMLCALGVGQGQRILLWAHKSVDLVAVMQAALRLGVVYVPVDPLSPVSRLEKIAGDSQAVLVLCTAARLEELAGSALAQVRSVVLDDPASAGYWRNIDTGSSVVPTLAIQPDDLAYILYTSGSTGVPKGVALSHGNALAFVDWACERYCFQPGERFANHAPLHFDLSVLDIYCALNVGATVCLVPESIAFSPRLLTDFIRQHEISIWYSVPSVLMMMMQDGDLLSDIQDTLRVLLFAGEPFPVKHLRDLRAAYADVRLANLFGPTETNVCTAFEVGAIDPERVLPVPIGTAASGNQVWAQKPDGSRCAVGEEGELVVQGPTVMLGYFAKPAQEGPYKTGDMVRQRPDGNYEYLGRRDDMLKVRGNRIERGEVEAALLAHPQVSEAAVLVVGEGMNAQLWGVLVAHTRDALSLIDLKRHCAQRLPRYMIIDKVLCLDALPRNANGKVDRFALARQVEGHHHHHH,soluble
4,MGSDKIHHHHHHMLIVREFSNRFQQMSGMPINSNETKERLKAAGIDINSKQYRAVMSEMSRDGGGGYTTISAIKKRMSRYDKDGDWINPRTGLAGLLVTDKNCASKNRIVSISESIMDEMFESTKKEFFMENGVHNGDTTNRSEIYQKLYQQTEKNDRLAAGYTLEEYERQYWQAFTDAVKVADPKWEAGKPIMPGVLDRITSKSIDALLVKSGSQLIRKSFERMI,not soluble
5,MRPLSLKGHERALTRVRFNREGDLTFSCAKDKKPCVWYTENGERIGSYDGHNGAVWDIDVSWDTTKCVTASGDLTVKIWDAELGNCLYTINHQTPMKSCGFSYSGNLVCFTTQKMTKNLSTFQVRDLRDSSQMVEGGESFFYSQFDVNATTALFTQMDDLVTIGFESGLLQQYDLRNPDTPIHTNESVHRYSVQDLQLSPRGDFLISASRDKTAALLDVNDLKKLKQYKSERPVNSACISPNRDHICLGGGEDAMQVTQTSVSAGHFEAKIYHMVFEEEFARFKGHFGPINTMAWHPSGTIIATGGEDGYIRIQEFDEDYLGFTYDF,not soluble
6,MLKSVLDALENGRLVELPDNDKSDALQFLATILEAVPSIPAGSNIVEIVLEHEKNSNTSLGFGWACPHARVNFDGDLCCAIGWSPAGIDYGIAGEPLVRLVVMFFVPENQRNTYLKEVSTLARVLKSNPEFQNLEPIGDLDQVRNTLLDMTHQAMSEGGKNYRARMIQLDTLTKSAGDAGHYWLKGMQIDALLVVAGPDIKPLVLSQNAELSRLATQDTQLVPAIASGNHYELQGWQIVRRSSTAYAGERVIYDCLAIKTRQGQGAPEAGG,soluble
7,MSLTTLVNLTPTKEQRKYQEDELIAFLDLQMNTFTANSENNDEAPSLLKKETSFNTDIWIENLFKFGFKKVILTAKLNNGICLWQSNCSKVNINTFSLENNYDDLVKKVSKSCKKFGLKFGIHLTLKDYLTLNLTPEEYDNYYTSQLKELMTNYSQISEVIMDMTSLDEYYDSLDFERYFKVVKEINPKCMISSPIGPDVRWTYYSDIESSKNYFYSSINLDLLKEDFNNEEIRKGNIYGDTWIVGESIYSLSDCLNHNKDSLSNLKHVYNNSLGRNTNLVLVLSPNTDGLLNHNELSLLSDFSKYIKETFSNNLIKGSSILATNSSSSDSYNLIDDYKKSYWIANENAVNPYIEIDFKTITEFNILEIREWIAEGQNVEEFKVYAYNNGWFELYNGTSIGYRHIAKLNNIKTDKIKISFTKYKNPPMINHIGAYLGEGHHHHHH,soluble
8,MGSDKIHHHHHHMQFCSSDEFASKTMIKWPWKVQESAHQTALPWQEALSIPLLTCLTEQEQSKLVTLAERFLQQKRLVPLQGFELDSLRSCRIALLFCLPVLELGLEWLDGFHEVLIYPAPFVVDDEWEDDIGLVHNQRIVQSGQSWQQGPIVLNWLDIQDSFDASGFNLIIHEVAHKLDTRNGDRASGVPFIPLREVAGWEHDLHAAMNNIQEEIELVGENAASIDAYAASDPAECFAVLSEYFFSAPELFAPRFPSLWQRFCQFYQQDPLQRLHHANDTDSFSATNVH,not soluble
9,MGHHHHHHSHPLKMETSGMTTPSLKTDGGRRTATSPPPTTSQTIISTIPSTAMHTRSTAAPIPILPERGVSLFPYGADAGDLEFVRRTVDFTSPLFKPATGFPLGSSLRDSLYASQAGTLWPWWLRSGTMLTSPLVGGPHFIRNTRRSMVNTAC,not soluble
10,MKLKKIVFTLIALGLFSCKTTSVLVKNEPQLKTPKNVILLISDGAGLSQISSTFYFKSGTPNYTQFKNIGLIKTSSSREDVTDSASGATAFSCGIKTYNAAIGVADDSTAVKSIVEIAALNNIKTGVVATSSITDATPASFYAHALNRGLEEEIAMDMTESDLDFFAGGGLNYFTKRKDKKDVLAILKGNQFTINTTALTDFSSIASNRKMGFLLADEAMPTMEKGRGNFLSAATDLAIQFLSKDNSAFFIMSEGSQIDWGGHANNASYLISEINDFDDAIGTALAFAKKDGNTLVIVTSDHETGGFTLAAKKNKREDGSEYSDYTEIGPTFSTGGHSATLIPVFAYGPGSEEFIGIYENNEIFHKILKVTKWNQ,soluble
11,MYILLCCAAGMSTSMVVRKMQEEAKKQGKDYKIKAVDSELVKLEIKNADVVLIGPQVKYLFPAVQFLAKSYDIPVAIIEQRDYGMCDGLKVLKQAEQLVLA,not soluble
12,MPDEKDKHEGTWLQWPHEYTYGEEYKKEVEPIWVKMASALTEGEKVHIVAYDQEEKERINNLLTDEGLNMEKIDFFIAPTDDVWARDSGPIFVYDSNKNLKILDPAFNGWGKKTPYKNDAQIRKNVSKQSGIERVDWGKFVLEGGAIELDSNGTALLTRSAVTNKNRNPDLSEKEIEKYISDLGVSNFIWLDGVPNLDITDFHIDGFAKFHNKSTIVTMKEDDLAEWGLSNKDMDTLLDAKNASGQKYKYEYLPLSKEKVALENGKTLDYKGSYINYYIGNTVVLVPNYNDPNDKIANDTIQKLYPDRKVVGIDVRELYKNGGMIHCVTQQQPIALKMAGDPLEHHHHHH,soluble
13,MAHHHHHHMGVDVGESAIGVDAVARPIGYGPFSAAAKARLAREKAHKAVETCDSAAAAASATVMKNVSLDTNLYLRLSLAGLPHPSQLQEWAYTSPEWRLAFVRLYRTILRLHNKAVAVSLRTARRQGSEAALSAATGMRATSQTTVAGAAVAATGADNSLAEDKDDYFLRYLLTPDQQEFGNRFVQEEFARHTDADAVAASIFYASWYEYVLQLASGVTAREMTEKEKRILTDEQKETLNSLRSAFLDLRSSQRPKYMP,not soluble
14,MMGFEWGFKPSSKITQSTVSSQGTGNVMIPTAGVKQKRRYANEEQEEEELPRNKNVMKYGGVSKRRPQPGSLIRGQPLPLQRGMELMNKNQLQQLLVDLMTKHPEIQQSVHTRVIGLDFSIQKCLDMLKQKSEAVYQSIPYNRSYESNKLDDYAFVRMKPQILEFLNCLVDFILDNIPPRLENLHASLKFLDICTELVIKLPRFELASNNYYYDKCIEQLSHVWCTLIEHVARDRIILLADNSSVWKSHMTRLQVYNEHSNGLLERPLQLFKSLDMGSPSAASSSTLSLQESIIYHHDTMTANENNNNSGSAATDSPFN,soluble
15,MAEFLDDQETRLCDNCKKEIPVFNFTIHEIHCQRNIGMCPTCKEPFPKSDMETHMAAEHCQVTCKCNKKLEKRLLKKHEETECPLRLAVCQHCDLELSILKLKEHEDYCGARTELCGNCGRNVLVKDLKTHPEVCGREGEEKRNEVAIPPNAYDESWGQDGIWIASQLLRQIEALDPPMRLPRRPLRAFESDVFHNRTTNQRNITAQVSIQNNLFEEQERQERNRGQQPPKEGGEESANLDFMLALSLQNEGQASSVAEQDFWRAVCEADQSHGGPRSLSDIKGAADEIMLPCEFCEELYPEELLIDHQTSCNPSRALPSLNTGSSSPRGVEEPDVIFQNFLQQAASNQLDSLMGLSNSHPVEESIIIPCEFCGVQLEEEVLFHHQDQCDQRPATATNHVTEGIPRLDSQPQETSPELPRRRVRHQGDLSSGYLDDTKQETANGPTSCLPPSRPINNMTATYNQLSRSTSGPRPGCQPSSPCVPKLSNSDSQDIQGRNRDSQNGAIAPGHVSVIRPPQNLYPENIVPSFSPGPSGRYGASGRSEGGRNSRVTPAAANYRSRTAKAKPSKQQGAGDAEEEEEE,soluble
16,MSTDVAAAQAQSKIDLTKKKNEEINKKSLEEDDEFEDFPIDTWANGETIKSNAVTQTNIWEENWDDVEVDDDFTNELKAELDRYKRENQ,soluble
